Starred links: 1 amine or outer side, 2 acyl side, 3 side chain; linkers in the order of their positions; H or OH if unused. Non-standard residues stand in square brackets, D forms with d. No end group written: not given here. *: point of attachment. Kbt‑6‑CONH = ketobenzothiazole-6-CONH (amide link to Val), O=C(c1ccc2nc([*:1])sc2c1)[*:2]; kbt = C-terminal ketobenzothiazole, c1ccc2sc(*)nc2c1; His(π-Bom) = N[C@@H](Cc1cncn1COCc1ccccc1)C(=O)O; Fmoc = O=C(OCC1c2ccccc2-c2ccccc21)*; cmk = not defined here

In assay [1] the target is Hepatocyte Growth Factor Activator (HGFA) serine protease domain, N-terminal His-tag, recombinant (Homo sapiens (Human)) (UniProt Q04756).
Assay [2] shares this target. Description: fluorogenic inhibition assay.
Assay [3] concerns the target Recombinant human hepsin (4776-SE-010, R&D Systems), activated (human, UniProt P05981). Description: fluorogenic inhibition assay. The protocol:
(§1) Inhibitors (11-pt serial dilutions, 0-20 μM final concentration in reaction) were serially diluted in DMSO (2% DMSO final concentration) and then mixed with either recombinant serine protease domain of HGFA [Z. Han, P. K. Harris, D. E. Jones, R. Chugani, T. Kim, M. Agarwal, W. Shen, S. A. Wildman, J. W. Janetka, Acs Med Chem Lett 2014, 5, 1219-1224], matriptase (Charles Craik, UCSF) or hepsin* (#4776-SE-010, R&D Systems, Minneapolis, Minn.) in black 384 well plates (Corning #3575. Corning, N.Y.). […] The final substrate concentrations for all assays were at the Kₘ for the respective enzymes. Changes in fluorescence (excitation at 380 nm and emission at 460 nm) were measured at room temperature over time in a Biotek Synergy 2 plate reader (Winnoski, Vt.). Using GraphPad Prism version 6.04 software program, (GraphPad Software, San Diego, Calif., www.graphpad.com), a four parameter curve fit was used to determine the inhibitor IC₅₀s from a plot of the mean reaction velocity versus the inhibitor concentration. The IC₅₀ values represent the average of three separate experimental determinations.
(§2) Fluorescent inhibitor and chromogenic proteolytic assays were performed in general accordance with the procedures described in Example 4 for compounds prepared in Examples 5 and 6.

The target of assay [4] is T1, matriptase (Charles Craik, UCSF), recombinant (Homo sapiens (Human), UniProt Q9Y5Y6).
T1 sequence: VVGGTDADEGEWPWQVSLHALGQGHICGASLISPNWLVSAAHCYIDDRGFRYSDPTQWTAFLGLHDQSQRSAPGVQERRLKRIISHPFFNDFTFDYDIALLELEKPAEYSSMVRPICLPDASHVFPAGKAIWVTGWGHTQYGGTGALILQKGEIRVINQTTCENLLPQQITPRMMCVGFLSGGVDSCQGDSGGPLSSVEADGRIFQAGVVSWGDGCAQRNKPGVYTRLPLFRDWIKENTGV
Description: fluorogenic inhibition assay. The protocol:
as §1, §2

In another assay the target is Factor Xa. Description: selectivity inhibition assay.
A further assay addresses recombinant thrombin. Description: selectivity inhibition assay.

On to H-KQLR(SEQ ID NO: 1)-Kt (peptide), for which, in assay [1], the IC50 of enzyme inhibition is 440 nM.

Consider Ac-SKFdR-kt (peptide), for which the IC50 of enzyme inhibition in assay [1] was 10800 nM.

Ac-SRLdR-kt (peptide): the IC50 of enzyme inhibition in assay [1] was found to be 2240 nM.

Regarding Ac-RQLdR-kt (peptide), in assay [1], the IC50 of enzyme inhibition was found to be 3120 nM.

With Ac-KQFdR-kt (peptide), the IC50 of enzyme inhibition in assay [1] was determined as 7820 nM.

Turning to Ac-SKLdR-kt (peptide), the IC50 of enzyme inhibition in assay [1] worked out at 6310 nM.

In the case of Ac-SHLdR-kt (peptide), in assay [1], the IC50 of enzyme inhibition came to 21200 nM.

Regarding Ac-WQLdR-kt (peptide), in assay [1], the IC50 of enzyme inhibition stood at 7120 nM.

Regarding H-KQLdR-kt (peptide), the IC50 of enzyme inhibition in assay [1] is 11300 nM.

As for Ac-SdRLR-kt (peptide), in assay [1], the IC50 of enzyme inhibition is 1420 nM.

Regarding Ac-WKLdR-kt (peptide), the IC50 of enzyme inhibition in assay [1] came out at 6500 nM.

In the case of Ac-KQLdR-kt (peptide), in assay [1], the IC50 of enzyme inhibition was found to be 5530 nM.

In the case of Ac-SdRLdR-kt (peptide), the IC50 of enzyme inhibition in assay [1] came to 11900 nM.

Ac-KHLdR-kt (peptide): the IC50 of enzyme inhibition in assay [1] worked out at 10900 nM.

As to Fmoc-Ile-Arg-kbt [Fmoc-IR-kbt], the Ki in assay [2] was found to be 6470 nM; in assay [3], 297 nM; in assay [4], 657 nM.

On to Fmoc-Met-Arg-kbt [Fmoc-MR-kbt], for which the inhibition constant (Ki) is 490 nM in assay [3] and 62.1 nM in assay [4].

Take H-Trp-Phe-Arg-kbt [H-WFR-kbt]: the inhibition constant (Ki) in assay [2] stood at 5680 nM; in assay [3] it was 240 nM.

Regarding H-[dW]-Leu-Arg-kbt [H-dWLR-kbt], the inhibition constant (Ki) worked out at 128 nM in assay [2] and 3.58 nM in assay [3].

Regarding H-Trp-Leu-Arg-{kbt-OH} [H-WLR-kbt-COOH], the Ki in assay [2] came out at 1380 nM; in assay [3] it was 446 nM.

Turning to Fmoc-Ser-Arg-kbt [Fmoc-SR-kbt], the Ki in assay [2] is over 20000 nM; in assay [3], 886 nM; in assay [4], 90 nM.

Turning to Fmoc-Ala-Arg-kbt [Fmoc-AR-kbt], the figures for the inhibition constant (Ki) in assay [2], in assay [3] and in assay [4] were 7980 nM, 272 nM and 0.5 nM, respectively.

For the molecule Fmoc-Gln-Arg-kbt [Fmoc-QR-kbt], the inhibition constant Ki came out at 6830 nM in assay [2], 170 nM in assay [3] and 1.6 nM in assay [4].

B1: Ac-WLFR(SEQ ID NO: 20)-Kbt (peptide)
peptide: Ac-WLFR-kbt
SMILES: CC(=O)N[C@@H](Cc1c[nH]c2ccccc12)C(=O)N[C@@H](CC(C)C)C(=O)N[C@@H](Cc1ccccc1)C(=O)N[C@@H](CCCNC(=N)N)C(=O)c1nc2ccccc2s1
Consider B1, for which the inhibitory constant (Ki) was 133 nM in assay [2]; 1 nM with Factor Xa; over 20000 nM with recombinant thrombin; 0.347 nM in assay [3]; 5.96 nM in assay [4].

For Ac-KRLR-{Kbt‑6‑CONH-Val-NH2} [Ac-KRLR(SEQ ID NO: 8)-Kbt-Val-NH2], the inhibition constant Ki in assay [2] worked out at 5.83 nM; with Factor Xa it was 17 nM; with recombinant thrombin, 1560 nM; in assay [3] it was 0.227 nM; in assay [4], 7.42 nM.

Consider Fmoc-Arg-Arg-kbt [Fmoc-RR-kbt], for which the results for the Ki in assay [2], in assay [3] and in assay [4] were 8630 nM, 99.9 nM and 2 nM, respectively.

With Fmoc-Gly-Arg-kbt [Fmoc-GR-kbt], the figures for the Ki in assay [2], in assay [3] and in assay [4] were 9380 nM, 831 nM and 0.1 nM, respectively.

B2: H-His(Bom)-dWLR-kbt (peptide)
peptide: H-[His(π-Bom)][dW]LR-kbt
SMILES: CC(C)C[C@H](NC(=O)[C@@H](Cc1c[nH]c2ccccc12)NC(=O)[C@@H](N)Cc1cncn1COCc1ccccc1)C(=O)N[C@@H](CCCNC(=N)N)C(=O)c1nc2ccccc2s1
For B2, the results for the Ki in assay [2], in assay [3] and in assay [4] were 2280 nM, 1.13 nM and 1500 nM, respectively.

Regarding Ac-KRLR (not fully specified (C-terminus); also: benzyl COOH at 3 or 4 (tables differ)) [Ac-KRLR(SEQ ID NO: 8)-kbt-Benzyl-3-COOH], the Ki was found to be 3.33 nM in assay [2], 1620 nM with recombinant thrombin, 0.3 nM in assay [3] and 3.6 nM in assay [4].

As for Fmoc-Tyr-Arg-kbt [Fmoc-YR-kbt], the Ki in assay [2] stood at 2960 nM; in assay [3], 217 nM; in assay [4], 332 nM.

Consider {Cy5.5}-KRLR-cmk (reading uncertain) [Cy5.5-KRLR(SEQ ID NO: 8)-cmk], for which the inhibitory constant (Ki) in assay [2] worked out at 34.1 nM; in assay [3], 324 nM; in assay [4] it was 172 nM.

As to H-[dW]-Leu-Arg-{kbt-OH} [H-dWLR-kbt-COOH], the Ki in assay [2] worked out at 346 nM; in assay [3], 136 nM.

Fmoc-Trp-Arg-kbt [Fmoc-WR-kbt]: the Ki in assay [2] came out at 3200 nM; in assay [3], 411 nM; in assay [4], 824 nM.

B3: H-His(Bom)-WLR-kbt (peptide)
peptide: H-[His(π-Bom)]WLR-kbt
SMILES: CC(C)C[C@H](NC(=O)[C@H](Cc1c[nH]c2ccccc12)NC(=O)[C@@H](N)Cc1cncn1COCc1ccccc1)C(=O)N[C@@H](CCCNC(=N)N)C(=O)c1nc2ccccc2s1
For the molecule B3, the inhibitory constant (Ki) in assay [2] was 3710 nM; in assay [3], 2.08 nM; in assay [4] it was 1550 nM.

As to Fmoc-Lys-Arg-kbt [Fmoc-KR-kbt], the Ki was over 20000 nM in assay [2], 159 nM in assay [3] and 0.2 nM in assay [4].

As for Fmoc-Glu-Arg-kbt [Fmoc-ER-kbt], the inhibition constant Ki in assay [2] is over 20000 nM; in assay [3] it was 338 nM; in assay [4] it was 8.4 nM.

Fmoc-Val-Arg-kbt [Fmoc-VR-kbt]: the results for the inhibitory constant (Ki) in assay [2], in assay [3] and in assay [4] were 4630 nM, 314 nM and 1490 nM, respectively.

Fmoc-Asp-Arg-kbt [Fmoc-DR-kbt]: the Ki in assay [2] is over 20000 nM; in assay [3] it was 233 nM; in assay [4], 398 nM.

Fmoc-Asn-Arg-kbt [Fmoc-NR-kbt]: the results for the Ki in assay [2], in assay [3] and in assay [4] were over 20000 nM, 1.92 nM and 84.1 nM, respectively.

Consider {Cy5.5}-KRLR-kbt [Cy5.5-KRLR(SEQ ID NO: 8)-kbt], for which the figures for the Ki in assay [2], in assay [3] and in assay [4] were 608 nM, 3.89 nM and 87.5 nM, respectively.

With H-[dW]-Phe-Arg-kbt [H-dWFR-kbt], the inhibitory constant (Ki) worked out at 2250 nM in assay [2] and 370 nM in assay [3].

As to Fmoc-His-Arg-kbt [Fmoc-HR-kbt], the Ki in assay [2] was 6360 nM; in assay [3] it was 268 nM; in assay [4], 66.7 nM.

Take Fmoc-Thr-Arg-kbt [Fmoc-TR-kbt]: the Ki was over 20000 nM in assay [2], 437 nM in assay [3] and 1220 nM in assay [4].

With Fmoc-Pro-Arg-kbt [Fmoc-PR-kbt], the Ki in assay [2] was over 20000 nM; in assay [3], 776 nM; in assay [4], 40.4 nM.

On to H-[dW]-Phe-Arg-{kbt-OH} [H-dWFR-kbt-COOH], for which the results for the Ki in assay [2], in assay [3] and in assay [4] were 981 nM, 1.41 nM and 232 nM, respectively.

(Values after US20180066015A1, “INHIBITORS OF GROWTH FACTOR ACTIVATION ENZYMES” (Washington University, published 2018).)
